Experimental findings from paper PMC12905498 (2026) are described below.

What is called Kd is the equilibrium constant for the complex coming apart. Low values mean a tighter complex, high ones a looser complex.

Experiment [1] deals with T1, Plasmodium falciparum HAP2 domain 3 (PfHAP2 D3 HisAvi), deglycosylated (P. falciparum, deglycosylated with PNGase F).
T1 chain: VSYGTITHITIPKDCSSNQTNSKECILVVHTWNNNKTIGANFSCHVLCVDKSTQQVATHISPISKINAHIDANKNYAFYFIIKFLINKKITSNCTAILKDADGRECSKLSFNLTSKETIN
Description: BLI. On the technique in general: Biolayer interferometry detects binding as a change in optical thickness at a sensor tip.

The target in experiment [2] is T1, Plasmodium falciparum HAP2 domain 3 …. The experiment can be described thus: BLI; single experiment.
The target in experiment [3] is T2, Plasmodium berghei HAP2 domain 3 (P. berghei).
T2 chain: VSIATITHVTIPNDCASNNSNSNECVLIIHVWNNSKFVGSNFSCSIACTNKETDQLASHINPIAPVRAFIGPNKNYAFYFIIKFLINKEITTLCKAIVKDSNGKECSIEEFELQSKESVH
The experiment can be described thus: BLI.

Experiment [4] has as its target T3, Plasmodium vivax HAP2 domain 3 (P. vivax).
T3 chain: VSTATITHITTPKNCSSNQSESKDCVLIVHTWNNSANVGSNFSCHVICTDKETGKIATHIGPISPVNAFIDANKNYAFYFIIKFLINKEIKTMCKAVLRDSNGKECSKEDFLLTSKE
The experiment can be described thus: BLI.

B1: WNbFc 335 (nanobody WNb 335 fused to hinge and Fc of human IgG1) (Fc fusion)
chain: QVQLQESGGGLVQPGGSLRLSCEASASGTIVALGTMAWYRQAPGNQRELVATITEESSTYYADSVKGRCTISRDNARNTMYLRLNSLKPEDTAVYYCNLANFWGQGTQVTVSS
Turning to B1, the Kd was found to be 0.0388 µM in experiment [1] and 0.0352 µM in experiment [2].

B2: anti-PbHAP2 D3 mAb 6.14 (variable regions in AbVec-hIgG1 and AbVec-IgKappa) (antibody, V domains shown)
VH: EVQLVESGGGLVKPGGSLKLSCAASEFTFSDYGMHWVRQAPEKGLEWVASISSGSNSIYYSDTVKGRFTISRDNAKSILFLQMTSLRSEDTAMYYCSREAYFAMDYWGQGTSVTVSS
VL: DIQMTQSPSSLSAILGGKVTITCKASQDIHKYIAWYQHKPGKGPRLLIYYTSTLQPGIPSRFSGSGSGRDYSFSISNLEPEDVATYFCLQYDNLYTFGGGTKVEIE
B2: binding in experiment [3] was put at a Kd of 0.0121 µM.

B3: anti-PbHAP2 D3 mAb 1.12 (variable regions in AbVec-hIgG1 and AbVec-IgKappa) (antibody, V domains shown)
VH: EFQLLQSGPELVKPGASVKISCKASDYSLSDYNMNWVRQRSGKSLEWIGVINPNHGTTHYNQKFKGKATLTVDQSSSTAYMQLTSLTSEDSAVYYCASPIHYGNHVPFDYWGQGTTVTVSS
VL: DIQMTQTTSSLSASLGDRVTISCRTGQDISNYLNWYQQKPDGTVKLLIYFTSRLHSGVPSRFSGSGSGTDYSLTISNLEQEDIATYFCQQGITLPWTFGGGTKLEIK
B3 showed a Kd in experiment [3] of 0.0051 µM.

B4: WNbFc 334 (nanobody WNb 334 fused to hinge and Fc of human IgG1) (Fc fusion)
chain: QVQLQESGGGLVQPGGSLRLSCAASGFTLDDYAIGWFRQDPGKGREGVSCISLSDGSTYYADAVTGRFTISRDNAKDTVYLQMNSLKPEDTAVYYCAALSQKQMTTVQAMCAVPIANYWGQGTQVTVSS
On to B4, for which the figures for the Kd in experiment [3], in experiment [1] and in experiment [2] were 1.45 µM, 0.0222 µM and 0.0197 µM, respectively.

B5: WNbFc 333 (nanobody WNb 333 fused to hinge and Fc of human IgG1) (Fc fusion)
chain: QVQLQESGGGSVQPGGSLRLSCAASGFTLEDYAIGWFRQAPGKGREGISCISSTDGSTHYADSAKGRFTISRDDAKNTAYLQMNSLKVEDTDVYYCAALSQEHMITVQRMCAVPAAHYWGRGTQVTVSS
Turning to B5, the Kd worked out at 3.65 µM in experiment [3], 2.25 µM in experiment [4], 0.0105 µM in experiment [1] and 0.0095 µM in experiment [2].
